Laboratory results as given in patent US10941182 (Amgen, dated 2021).
Starred links: 1 amine or outer side, 2 acyl side, 3 side chain; linkers in the order of their positions; H or OH if unused. Non-standard residues stand in square brackets, D forms with d. No end group written: not given here. *: point of attachment. dBip = N[C@H](Cc1ccc(-c2ccccc2)cc1)C(=O)O; Oic = O=C(O)[C@@H]1C[C@@H]2CCCC[C@@H]2N1; Phe(4-Cl) = N[C@@H](Cc1ccc(Cl)cc1)C(=O)O; dPhe(4-Cl) = N[C@H](Cc1ccc(Cl)cc1)C(=O)O; Phe(4-I) = N[C@@H](Cc1ccc(I)cc1)C(=O)O; γGlu = O=C(O)[C@H](CCC(=O)[*:2])N[*:1]; NMeR = CN[C@@H](CCCNC(=N)N)C(=O)O; Tridecanoyl = CCCCCCCCCCCCC(=O)*; hArg = N=C(N)NCCCC[C@H](N)C(=O)O; Cha = N[C@@H](CC1CCCCC1)C(=O)O; Nle = CCCC[C@H](N)C(=O)O; Orn = NCCC[C@H](N)C(=O)O; AEEA = NCCOCCOCC(=O)O; BLeu = β-leucine; Sar = CNCC(=O)O

T1: rat APJ receptor (rat, UniProt Q9JHG3 1-377)
T1 sequence (looked up): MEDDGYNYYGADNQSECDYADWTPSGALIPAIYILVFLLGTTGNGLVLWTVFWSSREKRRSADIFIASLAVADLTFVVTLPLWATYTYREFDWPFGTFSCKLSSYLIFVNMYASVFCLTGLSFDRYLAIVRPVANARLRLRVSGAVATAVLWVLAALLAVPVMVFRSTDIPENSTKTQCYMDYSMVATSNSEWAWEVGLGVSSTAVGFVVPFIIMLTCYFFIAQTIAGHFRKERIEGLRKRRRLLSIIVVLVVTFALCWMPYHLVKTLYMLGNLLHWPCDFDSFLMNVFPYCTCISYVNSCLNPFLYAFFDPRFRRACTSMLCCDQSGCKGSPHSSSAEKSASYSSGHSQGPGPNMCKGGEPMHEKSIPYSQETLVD

T2: human APJ receptor (human, UniProt P35414 1-380)
T2 sequence (looked up): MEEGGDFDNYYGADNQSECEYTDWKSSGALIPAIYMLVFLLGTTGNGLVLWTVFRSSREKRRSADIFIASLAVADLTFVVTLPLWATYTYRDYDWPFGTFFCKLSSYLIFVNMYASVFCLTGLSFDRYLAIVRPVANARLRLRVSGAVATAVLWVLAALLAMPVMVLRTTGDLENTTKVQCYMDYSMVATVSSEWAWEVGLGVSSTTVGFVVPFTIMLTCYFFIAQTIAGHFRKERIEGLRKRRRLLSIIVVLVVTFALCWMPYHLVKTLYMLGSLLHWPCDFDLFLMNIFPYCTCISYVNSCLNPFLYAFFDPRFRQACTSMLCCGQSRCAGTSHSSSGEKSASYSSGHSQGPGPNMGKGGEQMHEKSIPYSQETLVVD

B1: apelin polypeptide SEQ ID NO: 672 (peptide)
peptide: [Orn]F[hArg][hArg]Q[NMeR]P[NMeR][Cha]SHKG[Oic][Nle]P[Phe(4-Cl)]
B2: apelin polypeptide SEQ ID NO: 22 (peptide)
peptide: Ac-[hArg][hArg]Q[dR]P[NMeR][Cha]SHKG[Oic][Phe(4-I)]P[dBip]-OH
SMILES: CC(=O)N[C@@H](CCCCNC(=N)N)C(=O)N[C@@H](CCCCNC(=N)N)C(=O)N[C@@H](CCC(N)=O)C(=O)N[C@H](CCCNC(=N)N)C(=O)N1CCC[C@H]1C(=O)N(C)[C@@H](CCCNC(=N)N)C(=O)N[C@@H](CC1CCCCC1)C(=O)N[C@@H](CO)C(=O)N[C@@H](Cc1c[nH]cn1)C(=O)N[C@@H](CCCCN)C(=O)NCC(=O)N1[C@H](C(=O)N[C@@H](Cc2ccc(I)cc2)C(=O)N2CCC[C@H]2C(=O)N[C@H](Cc2ccc(-c3ccccc3)cc2)C(=O)O)C[C@@H]2CCCC[C@@H]21
B3: apelin polypeptide SEQ ID NO: 279 (peptide)
peptide: Tridecanoyl-[γGlu][AEEA][AEEA]Q[NMeR]P[dR][Cha]SHKG[Oic][Nle]P[Phe(4-Cl)]-OH
SMILES: CCCCCCCCCCCCC(=O)N[C@@H](CCC(=O)NCCOCCOCC(=O)NCCOCCOCC(=O)N[C@@H](CCC(N)=O)C(=O)N(C)[C@@H](CCCNC(=N)N)C(=O)N1CCC[C@H]1C(=O)N[C@H](CCCNC(=N)N)C(=O)N[C@@H](CC1CCCCC1)C(=O)N[C@@H](CO)C(=O)N[C@@H](Cc1c[nH]cn1)C(=O)N[C@@H](CCCCN)C(=O)NCC(=O)N1[C@H](C(=O)N[C@@H](CCCC)C(=O)N2CCC[C@H]2C(=O)N[C@@H](Cc2ccc(Cl)cc2)C(=O)O)C[C@@H]2CCCC[C@@H]21)C(=O)O
B4: apelin polypeptide SEQ ID NO: 281 (peptide)
peptide: Tridecanoyl-[γGlu][AEEA][AEEA][dQ][hArg]P[dR][BLeu]SHKG[Oic][Nle]P[dPhe(4-Cl)]-OH
B5: apelin polypeptide SEQ ID NO: 678 (peptide)
peptide: [Orn]F[hArg][hArg]Q[hArg]P[hArg][Cha][Sar]HKG[Oic][Nle]P[Phe(4-Cl)]
B6: apelin polypeptide SEQ ID NO: 283 (peptide)
peptide: Tridecanoyl-[γGlu][AEEA][AEEA][dQ][hArg]P[dR][Cha]SHKG[Oic][Nle][dPhe(4-Cl)]-OH
SMILES: CCCCCCCCCCCCC(=O)N[C@@H](CCC(=O)NCCOCCOCC(=O)NCCOCCOCC(=O)N[C@H](CCC(N)=O)C(=O)N[C@@H](CCCCNC(=N)N)C(=O)N1CCC[C@H]1C(=O)N[C@H](CCCNC(=N)N)C(=O)N[C@@H](CC1CCCCC1)C(=O)N[C@@H](CO)C(=O)N[C@@H](Cc1c[nH]cn1)C(=O)N[C@@H](CCCCN)C(=O)NCC(=O)N1[C@H](C(=O)N[C@@H](CCCC)C(=O)N[C@H](Cc2ccc(Cl)cc2)C(=O)O)C[C@@H]2CCCC[C@@H]21)C(=O)O
B7: apelin polypeptide SEQ ID NO: 669 (peptide)
peptide: [Orn]F[NMeR][hArg]Q[hArg]P[hArg][Cha]SHKG[Oic][Nle]P[Phe(4-Cl)]
B8: apelin polypeptide SEQ ID NO: 284 (peptide)
peptide: Tridecanoyl-[γGlu][AEEA][AEEA]Q[dR]P[NMeR][Cha]SHKG[Oic][Nle]P[dPhe(4-Cl)]-OH
SMILES: CCCCCCCCCCCCC(=O)N[C@@H](CCC(=O)NCCOCCOCC(=O)NCCOCCOCC(=O)N[C@@H](CCC(N)=O)C(=O)N[C@H](CCCNC(=N)N)C(=O)N1CCC[C@H]1C(=O)N(C)[C@@H](CCCNC(=N)N)C(=O)N[C@@H](CC1CCCCC1)C(=O)N[C@@H](CO)C(=O)N[C@@H](Cc1c[nH]cn1)C(=O)N[C@@H](CCCCN)C(=O)NCC(=O)N1[C@H](C(=O)N[C@@H](CCCC)C(=O)N2CCC[C@H]2C(=O)N[C@H](Cc2ccc(Cl)cc2)C(=O)O)C[C@@H]2CCCC[C@@H]21)C(=O)O
B9: apelin polypeptide SEQ ID NO: 282 (peptide)
peptide: Tridecanoyl-[γGlu][AEEA][AEEA][dQ][hArg]P[dR][Cha]SHKG[Oic][Nle][Phe(4-Cl)]-OH
SMILES: CCCCCCCCCCCCC(=O)N[C@@H](CCC(=O)NCCOCCOCC(=O)NCCOCCOCC(=O)N[C@H](CCC(N)=O)C(=O)N[C@@H](CCCCNC(=N)N)C(=O)N1CCC[C@H]1C(=O)N[C@H](CCCNC(=N)N)C(=O)N[C@@H](CC1CCCCC1)C(=O)N[C@@H](CO)C(=O)N[C@@H](Cc1c[nH]cn1)C(=O)N[C@@H](CCCCN)C(=O)NCC(=O)N1[C@H](C(=O)N[C@@H](CCCC)C(=O)N[C@@H](Cc2ccc(Cl)cc2)C(=O)O)C[C@@H]2CCCC[C@@H]21)C(=O)O

biological target: T1, rat APJ receptor; experiment: cell-based or functional assay

EC50 Rat APJ Receptor [nM] | Binder
0.845 | B1
4.52 | B2
19.3 | B3
87.3 | B4
2.11 | B5
15.6 | B6
5.59 | B7
> 4170 | B8
13.3 | B9

biological target: T2, human APJ receptor; experiment: cell-based or functional assay

EC50 Human APJ Receptor [nM] | Binder
0.445 | B1
1.52 | B2
3.29 | B3
14.8 | B4
0.664 | B5
9.74 | B6
5.3 | B7
> 4170 | B8
5.79 | B9
